Series [1] concerns LmrR-Strep (Lactococcus lactis). In words: MST. Particulars: apparent Kd, MST: 20 mM Tris-HCl pH 8.0, 1 mM EDTA, 50 nM Cy5-DNA, 30 min incubation at 30 C, 30% LED, 40% laser power (30% laser for PlmrR), Hill fit.
The target of series [2] is T1, LmrR-Strep (Lactococcus lactis) (UniProt A2RI36).
T1 sequence: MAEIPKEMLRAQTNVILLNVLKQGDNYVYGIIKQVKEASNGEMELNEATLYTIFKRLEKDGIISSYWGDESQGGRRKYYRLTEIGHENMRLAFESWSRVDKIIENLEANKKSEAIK
In words: MST. Particulars: MST: 20 mM Tris-HCl pH 8.0, 1 mM EDTA, 50 nM Cy5-DNA, 30 min incubation at 30 C; 30% LED, 40% laser power (30% laser for PlmrR); Hill fit.

Six substances from article PMC4534193, “Binding of the Lactococcal Drug Dependent Transcriptional Regulator LmrR to Its Ligands and Responsive Promoter Regions” (PLoS ONE, 2015) can be followed below.

On to PlmrCD -62bp, for which the Kd in series [1] (no riboflavin) came to 62 nM.

Turning to PlmrCD (lmrCD promoter/operator region), the Kd was 195 nM in series [1] (50 uM riboflavin) and 82.1 nM in series [1] (no riboflavin, Hill coefficient 1.78 +/- 0.17).

In series [2], “TTCTAGAGTTAAATAATGTAAACTACTTTACATTAAATTGAATTTTCAATTTCATTTTACTTCAAAATAATTTCAATAAATTTTTTGAGAAGATAATTATAACATTATTTTTTTTAGTAAACAAGCATTAATTGTTAATGCTGTTAAAGATTACAATAGTTAGTTTCATAAATGGTAAACTAACAAAAATATTGTAACGCTTTTTAAAGTTTAAGTCAACGATTTACGACGTTATTTGTATCTTCTTATGTTTTTATAAATTTAGAATTTAAAGTAAGGAATGAATCG (double strand) [PlmrCD -62bp]” displayed a Kd of 62 nM.

The substance “CTCCTTGTTTTAGGACATTGAGCAAAATTACATTGGTTTGGGCTCGTAACATTTCTTTTGGTATTTCTGCCATTCTTTTTCCTTTCTATCATTTTAAACAAAGTATATTATACTTCACATTACTATGTAAGTCAAGGTACTTAAACTATTTATATAATATTTTATTTTTGACGACTTTCTACTATATAAGATAAGAAAAAATCATCTCCG (double strand) [PlmrR (lmrR promoter/operator region)]” yielded a Kd in series [2] of 1400 nM.

As for PlmrR (lmrR promoter/operator region), the Kd in series [1] (50 uM riboflavin, 30% laser power) was determined as 5120 nM; in series [1] (no riboflavin, Hill coefficient 2.43 +/- 0.19, 30% laser power), 1400 nM.

Take “ACTACTTTACATTAAATTGAATTTTCAATTTCATTTTACTTCAAAATAATTTCAATAAATTTTTTGAGAAGATAATTATAACATTATTTTTTTTAGTAAACAAGCATTAATTGTTAATGCTGTTAAAGATTACAATAGTTAGTTTCATAAATGGTAAACTAACAAAAATATTGTAACGCTTTTTAAAGTTTAAGTCAACGATTTACGACGTTATTTGTATCTTCTTATGTTTTTATAAATTTAGAATTTAAAGTAAGGAATGAATCG (double strand) [PlmrCD no PadR (half of PadR motif deleted)]”: the binding entry in series [2] is “no binding”.
